According to PMC10955725:

Molecular target: His6-Mb(S2)-Avi, recombinant monobody
Assay: BLI

Kd: 7 µM
Substance: wild-type (WT) SOD1, non-tagged recombinant (from UniProt P00441 2-154) (natural protein)
